Data published in the Immune Epitope Database (IEDB).

target: HLA-B*39:06; test: IEDB peptide-MHC binding, purified MHC/competitive/radioactivity; ≥ and ≤ were set here for values at or beyond the usual limits of such assays; conditions: source organism: Homo sapiens

IC50 [nM]	Sequence
6	ARFTGIKTA
9.2	ERFYGKYTA
40	GRSIAFHSA
9.6	HRLEGLREA
137	IEHDVVMKA
8.1	SRYLGKITA
11	TQRLIRESA
17	YHDIKRITA

More lines, now with the values behind:

Sequence	IC50 [nM]
DHHLPPPAA	72
ERMKLVVQA	15
FRYQGHVGA	1.7
LQHPFVRSA	7.7
NHINVELSL	27900
NRVMLPKAA	2.7
NRYDGIYKV	371
TFDVAPSRL	353
THNYGIGAA	15
TRYQIPKEV	450
YYDEKVVKL	3730

same assay, conditions: source organism: Mus musculus

IC50 [nM]	Sequence
≥ 77000	EAFEHTPGV
1210	EHTPGVHMA
2200	IHIDSTPFA
≥ 77000	INSEMFLRS
≥ 76100	LVAEAFEHT
11900	MALWMRFLP
68800	TNVFLFLFA
1350	YRFIKIPTH

target: HLA-B*38:01; test: as above; conditions: source organism: Human immunodeficiency virus 1

Sequence	IC50 [nM]
GHQAAMQML	1020
KMQKEHALF	12100
KRHKEFALF	1100
KTQKEYALF	40600
MHEDIISLW	53
WHLGQGVSI	10

same assay, conditions: source organism: Simian immunodeficiency virus

Sequence	IC50 [nM]
DHQAAMQII	125
DRFGLAESL	30
FRQYTAFTL	17
IHGQANSDL	2360
NETWYSADL	3920
NHLPRELIF	1120
THIQQDPAL	148
THTNGVRLL	617
VPSLQYLAL	1530
WLFSNCRTL	993

same assay, conditions: source organism: Vaccinia virus

Sequence	IC50 [nM]
IHIPGDTLF	11

same assay, conditions: source organism: Variola virus

Sequence	IC50 [nM]
RHDITGFIL	6.4
YKEPNSIIL	4730
